Earlier results in PMC5040959.

Biological target: Glu286 (UniProt position 286, FFGHPEVYIIV)
Test: kinetics
Conditions: fully reduced CytcO reacting with O2, F -> O step

Q: Which pKa does the source give for “Cytochrome c oxidase (cytochrome aa3), subunit I (Rhodobacter sphaeroides)” here?
A: The pKa was ~9.
